Drawing on patent US20180231567A1, this text covers % inhibition (median) for one molecule.

For test [1], the target named is serum IgE of the 10 allergic adults sensitized to peanut extract used for the inhibition experiments (Example 3) (human). As to the kind of experiment: ELISA cross-inhibition; Ara h 7.0201 immobilized, sera pre-incubated with competing allergen at 0.1, 1 and 10 ug/ml. (In an ELISA, binding on a coated surface is turned into a signal by an enzyme label.)
Test [2] shares this target. Put plainly: ELISA cross-inhibition; Ara h 6 immobilized, sera pre-incubated with competing allergen at 0.1, 1 and 10 ug/ml.

B1: Ara h 2 isotype 2.0201, as expressed in example 1 (His fusion protein) (protein)
chain: MSHHHHHHIEGRTMRQQWELQGDRRCQSQLERANLRPCEQHLMQKIQRDEDSYGRDPYSPSQDPYSPSQDPDRRDPYSPSPYDRRGAGSSQHQERCCNELNEFENNQRCMCEALQQIMENQSDRLQGRQQEQQFKRELRNLPQQCGLRAPQRCDLEVESGGRDRY
Regarding B1, the % inhibition (median) in test [1] was 16%; in test [2], 43%.
